*1 amine or outer side, *2 acyl side, *3 side chain or, on linkers, in order; H or OH if unused. Where no end group is shown, it is not given here. Side-chain parts run from the residue outwards. [ ]: non-standard residue; d: D form. The star is where a group is joined. αMePhe(2-F) = C[C@](N)(Cc1ccccc1F)C(=O)O; γGlu = O=C(O)[C@H](CCC(=O)[*:2])N[*:1]; C14 diacid = O=C(O)CCCCCCCCCCCCC(=O)*; εLys = N[C@@H](CCCCN[*:1])C(=O)[*:2]; αMeY = C[C@](N)(Cc1ccc(O)cc1)C(=O)O; αMeL = CC(C)C[C@](C)(N)C(=O)O; Orn = NCCC[C@H](N)C(=O)O; Dap = NC[C@H](N)C(=O)O; AEEA = NCCOCCOCC(=O)O; Aib = CC(C)(N)C(=O)O
How the values were obtained:
Test in all cases: cell-based or functional assay
hGLP-1R = hGLP-1R (Homo sapiens, UniProt P43220)
[1] = biological target: T1, human GIP receptor (human) (UniProt P48546)
T1 sequence (looked up): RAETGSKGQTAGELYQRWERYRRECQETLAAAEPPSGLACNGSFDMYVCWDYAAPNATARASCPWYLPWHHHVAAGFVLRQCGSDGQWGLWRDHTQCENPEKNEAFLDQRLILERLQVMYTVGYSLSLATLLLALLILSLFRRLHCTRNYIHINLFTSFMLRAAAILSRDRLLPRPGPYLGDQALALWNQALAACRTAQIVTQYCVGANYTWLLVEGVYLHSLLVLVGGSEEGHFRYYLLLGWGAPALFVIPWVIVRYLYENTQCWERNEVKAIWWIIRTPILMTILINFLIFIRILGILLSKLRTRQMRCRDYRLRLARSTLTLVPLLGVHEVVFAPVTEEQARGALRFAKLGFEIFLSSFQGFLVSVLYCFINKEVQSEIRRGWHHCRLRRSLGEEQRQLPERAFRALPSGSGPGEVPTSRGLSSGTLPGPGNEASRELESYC

[2] = biological target: human glucagon receptor (human) (UniProt P47871)
human GIP receptor = biological target: T2, human GIP receptor (human, UniProt P48546 22-466)
T2 sequence (looked up): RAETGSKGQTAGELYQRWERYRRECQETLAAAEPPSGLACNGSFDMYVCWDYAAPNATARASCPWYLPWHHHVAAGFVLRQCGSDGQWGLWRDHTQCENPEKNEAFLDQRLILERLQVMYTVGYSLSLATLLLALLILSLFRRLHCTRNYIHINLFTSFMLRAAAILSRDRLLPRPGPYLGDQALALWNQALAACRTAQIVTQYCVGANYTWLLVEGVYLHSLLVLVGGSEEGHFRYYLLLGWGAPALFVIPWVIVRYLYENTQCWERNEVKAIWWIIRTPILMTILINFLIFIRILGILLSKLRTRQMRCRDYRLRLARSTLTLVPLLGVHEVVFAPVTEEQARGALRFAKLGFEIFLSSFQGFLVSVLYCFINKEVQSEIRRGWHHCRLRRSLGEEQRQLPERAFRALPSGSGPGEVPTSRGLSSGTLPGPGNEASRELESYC

human GLP-1 receptor = human GLP-1 receptor (human, UniProt P43220 24-463)
[3] = biological target: T3, human glucose-dependent insulinotropic polypeptide (GIP) receptor (human, UniProt P48546 22-466)
T3 sequence (looked up): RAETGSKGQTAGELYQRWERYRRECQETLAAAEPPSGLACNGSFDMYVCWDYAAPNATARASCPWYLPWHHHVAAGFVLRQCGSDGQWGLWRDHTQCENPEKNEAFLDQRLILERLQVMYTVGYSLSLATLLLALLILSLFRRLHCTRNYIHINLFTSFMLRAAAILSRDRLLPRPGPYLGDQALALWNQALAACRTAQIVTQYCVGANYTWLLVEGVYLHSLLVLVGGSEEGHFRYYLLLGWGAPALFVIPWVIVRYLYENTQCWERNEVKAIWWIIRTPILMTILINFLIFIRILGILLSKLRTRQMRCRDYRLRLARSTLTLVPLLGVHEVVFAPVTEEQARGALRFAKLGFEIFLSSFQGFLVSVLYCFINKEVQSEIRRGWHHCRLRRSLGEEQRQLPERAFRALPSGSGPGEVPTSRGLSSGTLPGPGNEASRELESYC

[4] = biological target: human glucagon-like peptide-1 (GLP-1) receptor (human, UniProt P43220 24-463)

B1: Example 408 (peptide)
peptide: YXEGTXTSDXXIXLDXKAQXKFIXXLIXGGPSSGAPPPS
modifications: Y-Aib-EGT-αMeF(2F)-TSD-4Pal-Aib-I-αMeL-LD-Orn-K((2-[2-(2-Amino-ethoxy)-ethoxy]-acetyl)2-(γ-Glu)-(10-(4-carboxyphenoxy)decanoyl))AQ-Aib-K((2-[2-(2-Amino-ethoxy)-ethoxy]-acetyl)2-(γ-Glu)-(10-(4-carboxyphenoxy)decanoyl))FI-(D-Glu)-αMeY-LI-Orn-GGPSSGAPPPS-NH2
cAMP EC50 (hGLP-1R): 0.227 nM
cAMP Emax (hGLP-1R): 102%
cAMP EC50 [1]: 0.00888 nM
cAMP Emax [1]: 99.7%
cAMP EC50 [2]: > 9950 nM
cAMP EC50 (1.0% HSA) (human GIP receptor): 0.299 nM
cAMP EC50 (1.0% HSA) (human GLP-1 receptor): 5.92 nM

B2: Example 413 (peptide)
peptide: YXEGTXTSDXXIXLDXKAQXKFIXXLIXGGPSSGAPPPS
modifications: Y-Aib-EGT-αMeF(2F)-TSD-4Pal-Aib-I-αMeL-LD-Orn-K((2-[2-(2-Amino-ethoxy)-ethoxy]-acetyl)2-(γ-Glu)-CO-(CH2)10-CH3)AQ-Aib-K((2-[2-(2-Amino-ethoxy)-ethoxy]-acetyl)2-(γ-Glu)-CO-(CH2)10-CH3)FI-(D-Glu)-αMeY-LI-Orn-GGPSSGAPPPS-NH2
cAMP EC50 (hGLP-1R): 0.234 nM
cAMP Emax (hGLP-1R): 96.9%
cAMP EC50 [1]: 0.0146 nM
cAMP Emax [1]: 101%
cAMP EC50 [2]: > 9950 nM
cAMP EC50 (1.0% HSA) (human GIP receptor): 0.422 nM
cAMP EC50 (1.0% HSA) (human GLP-1 receptor): 5.47 nM

B3: Example 423 (peptide)
peptide: YXEGTXTSDXXIXLDXKAQXEFIXXLIKGGPSSGAPPPS
modifications: Y-Aib-EGT-αMeF(2F)-TSD-4Pal-Aib-I-αMeL-LD-Orn-K((2-[2-(2-Amino-ethoxy)-ethoxy]-acetyl)3-(γ-Glu)-CO-(CH2)10-CH3)AQ-Aib-EFI-(D-Glu)-αMeY-LIK((2-[2-(2-Amino-ethoxy)-ethoxy]-acetyl)3-(γ-Glu)-CO-(CH2)10-CH3)GGPSSGAPPPS-NH2
cAMP EC50 (hGLP-1R): 0.0721 nM
cAMP Emax (hGLP-1R): 105%
cAMP EC50 [1]: 0.00658 nM
cAMP Emax [1]: 104%
cAMP EC50 [2]: > 9950 nM
cAMP EC50 (1.0% HSA) (human GIP receptor): 0.294 nM
cAMP Emax (1.0% HSA) (human GIP receptor): 89.7%
cAMP EC50 (1.0% HSA) (human GLP-1 receptor): 4.74 nM

B4: Example 427 (peptide)
peptide: YXEGTXTSDXXIXLDXKAQXEFIXXLIKGGPSSGAPPPS
modifications: Y-Aib-EGT-αMeF(2F)-TSD-4Pal-Aib-I-αMeL-LD-Orn-K((2-[2-(2-Amino-ethoxy)-ethoxy]-acetyl)-(γ-Glu)-CO-(CH2)10-CH3)AQ-Aib-EFI-(D-Glu)-αMeY-LIK((2-[2-(2-Amino-ethoxy)-ethoxy]-acetyl)-(γ-Glu)-CO-(CH2)10-CH3)GGPSSGAPPPS-NH2
cAMP EC50 (hGLP-1R): 0.206 nM
cAMP Emax (hGLP-1R): 109%
cAMP EC50 [1]: 0.0132 nM
cAMP Emax [1]: 95.9%
cAMP EC50 [2]: > 9950 nM
cAMP EC50 (1.0% HSA) (human GIP receptor): 2.04 nM
cAMP Emax (1.0% HSA) (human GIP receptor): 92.4%
cAMP EC50 (1.0% HSA) (human GLP-1 receptor): 25.1 nM

B5: Example 433 (peptide)
peptide: YXEGTXTSDXXIXLDXKAQXKFIXXLIXGGPSSGAPPPS
modifications: Y-Aib-EGT-αMeF(2F)-TSD-4Pal-Aib-I-αMeL-LD-Orn-K((2-[2-(2-Amino-ethoxy)-ethoxy]-acetyl)3-(γ-Glu)-CO-(CH2)10-CH3)AQ-Aib-K((2-[2-(2-Amino-ethoxy)-ethoxy]-acetyl)3-(γ-Glu)-CO-(CH2)10-CH3)FI-(D-Glu)-αMeY-LI-Orn-GGPSSGAPPPS-NH2
cAMP EC50 (hGLP-1R): 0.128 nM
cAMP Emax (hGLP-1R): 102%
cAMP EC50 [1]: 0.00972 nM
cAMP Emax [1]: 94%
cAMP EC50 [2]: > 9950 nM
cAMP EC50 (1.0% HSA) (human GIP receptor): 0.136 nM
cAMP EC50 (1.0% HSA) (human GLP-1 receptor): 2.63 nM

B6: Example 465 (peptide)
peptide: YXEGTXTSDXXIXLDXKAQXEFIXXLIKGGPSSGAPPPS
modifications: Y-Aib-EGT-αMeF(2F)-TSD-4Pal-Aib-I-αMeL-LD-Orn-K((2-[2-(2-Amino-ethoxy)-ethoxy]-acetyl)-Aoc-CO-(CH2)12-CO2H)AQ-Aib-EFI-(D-Glu)-αMeY-LIK(((2-[2-(2-Amino-ethoxy)-ethoxy]-acetyl)-Aoc-CO-(CH2)12-CO2H)GGPSSGAPPPS-NH2)
cAMP EC50 (hGLP-1R): 0.413 nM
cAMP Emax (hGLP-1R): 98.6%
cAMP EC50 [1]: 0.0174 nM
cAMP Emax [1]: 94.9%
cAMP EC50 [2]: > 9950 nM
cAMP EC50 (1.0% HSA) (human GIP receptor): 3.63 nM
cAMP Emax (1.0% HSA) (human GIP receptor): 94.4%
cAMP EC50 (1.0% HSA) (human GLP-1 receptor): 73.2 nM

B7: Example 201 (peptide)
peptide: Y[Aib]EGT[αMePhe(2-F)]TSDV[Dap]I[αMeL]LD[Orn]K([AEEA-AEEA-γGlu-C14 diacid])AQ[Aib]EFI[dE][αMeY]LIEGGK([AEEA-AEEA-γGlu-C14 diacid])SSGAPPPS-NH2
modifications: N-terminus assumed
SMILES: CC[C@H](C)[C@H](NC(=O)[C@H](CC(C)C)NC(=O)[C@](C)(Cc1ccc(O)cc1)NC(=O)[C@@H](CCC(=O)O)NC(=O)[C@@H](NC(=O)[C@H](Cc1ccccc1)NC(=O)[C@H](CCC(=O)O)NC(=O)C(C)(C)NC(=O)[C@H](CCC(N)=O)NC(=O)[C@H](C)NC(=O)[C@H](CCCCNC(=O)COCCOCCNC(=O)COCCOCCNC(=O)CC[C@H](NC(=O)CCCCCCCCCCCCC(=O)O)C(=O)O)NC(=O)[C@H](CCCN)NC(=O)[C@H](CC(=O)O)NC(=O)[C@H](CC(C)C)NC(=O)[C@](C)(CC(C)C)NC(=O)[C@@H](NC(=O)[C@H](CN)NC(=O)[C@@H](NC(=O)[C@H](CC(=O)O)NC(=O)[C@H](CO)NC(=O)[C@@H](NC(=O)[C@](C)(Cc1ccccc1F)NC(=O)[C@@H](NC(=O)CNC(=O)[C@H](CCC(=O)O)NC(=O)C(C)(C)NC(=O)[C@@H](N)Cc1ccc(O)cc1)[C@@H](C)O)[C@@H](C)O)C(C)C)[C@@H](C)CC)[C@@H](C)CC)C(=O)N[C@@H](CCC(=O)O)C(=O)NCC(=O)NCC(=O)N[C@@H](CCCCNC(=O)COCCOCCNC(=O)COCCOCCNC(=O)CC[C@H](NC(=O)CCCCCCCCCCCCC(=O)O)C(=O)O)C(=O)N[C@@H](CO)C(=O)N[C@@H](CO)C(=O)NCC(=O)N[C@@H](C)C(=O)N1CCC[C@H]1C(=O)N1CCC[C@H]1C(=O)N1CCC[C@H]1C(=O)N[C@@H](CO)C(N)=O
cAMP EC50 [3]: 0.188 nM
cAMP Emax [3]: 92.2%
cAMP EC50 [4]: 0.487 nM

B8: Example 212 (peptide)
peptide: YXEGTXTSDVXIXLDXKAQXEFIXXLIEGGKSSGAPPPS
modifications: Aib2, αMeF(2F)6, αMeS11, αMeL13, Orn16, K17(Z), Aib20, D-Glu24, αMeY25, K31(Z), C-terminal NH2; Z = AEEA2-(γ-Glu)-CO-(CH2)12-CO2H
cAMP EC50 [3]: 0.0385 nM
cAMP Emax [3]: 100%
cAMP EC50 [4]: 0.265 nM

B9: Example 163 (peptide)
peptide: Y[Aib]EGT[αMePhe(2-F)]TSDV[Aib]I[αMeL]LD[Orn]K([AEEA-AEEA-εLys-C14 diacid])AQ[Aib]EFI[dE][αMeY]LIEGGK([AEEA-AEEA-εLys-C14 diacid])SSGAPPPS-NH2
cAMP EC50 [3]: 0.0427 nM
cAMP Emax [3]: 98.2%
cAMP EC50 [4]: 0.199 nM
cAMP Emax [4]: 86.3%
